Tests used:
[1] = molecular target: H5N1 HA蛋白(BIOHJSW，货号orb-EHJ075488) (H5N1 avian influenza virus); assay: indirect ELISA, coated HA 5 μg/mL, hybridoma supernatant
H3 HA = assay: as above
H1 HA = assay: as above
[2] = molecular target: H5N1 HA蛋白(BIOHJSW，货号orb-EHJ075488) (H5N1 avian influenza virus)

B1: H5-3F5单克隆抗体 (antibody, V domains shown)
VH: EVQLVESGGGLVQPGGSLRLSCAASGFSLSEAVSGWVRQAPGKGLEWVGVCNNRIPFYLTWCKLFRFTISKDNSKNTLYLQMNSLRAEDTAVYYCARQRSYCNFQPHPNGWGQGTLVTVSS
VL: AYQMTQSPSSVSASVGDRVTITCGQNMMWIPAWLWYQQKPGKAPKLLIYETNGEHYGVPSRFSGSGSGTDFTLTISSLQPEDFATYYCMMMNARKSLQATKFGGGTKVEIK
Question: What does the source list for B1?
Answer: OD450 [1]: 2.62 OD450; OD450 (H3 HA): 0.412 OD450; OD450 (H1 HA): 0.231 OD450; Kd [2]: 407 pM
